± gives the standard deviation of the averaged measurements.
Legend:
hTERT-HMEC = assay: percentage of EdU-negative (G0-arrested) nuclei per well, 72 h; higher = more G0 arrest; conditions: reference: sequence is the full UniProt precursor, the tested protein was the secreted form or ectodomain
MCF7 = assay: as above; conditions: reference: sequence is the full UniProt precursor, the tested protein was the secreted form or ectodomain
[1] = protein concentration 0.00725 µM
[2] = protein concentration 0.0725 µM
[3] = protein concentration 0.00742857 µM
[4] = protein concentration 0.0742857 µM
[5] = protein concentration 0.0239275 µM
[6] = protein concentration 0.239275 µM
[7] = protein concentration 0.0225 µM
[8] = protein concentration 0.0357143 µM
[9] = protein concentration 0.357143 µM
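Further: secreted proteins added to cultured cells, EdU pulse at the end, nuclei found by Hoechst imaging, EdU status from nuclear versus surrounding ring intensity ratio, PBS as neutral control.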

MRPPQCLLHTPSLASPLLLLLLWLLGGGVGAEGREDAELLVTVRGGRLRGIRLKTPGGPVSAFLGIPFAEPPMGPRRFLPPEPKQPWSGVVDATTFQSVCYQYVDTLYPGFEGTEMWNPNRELSEDCLYLNVWTPYPRPTSPTPVLVWIYGGGFYSGASSLDVYDGRFLVQAERTVLVSMNYRVGAFGFLALPGSREAPGNVGLLDQRLALQWVQENVAAFGGDPTSVTLFGESAGAASVGMHLLSPPSRGLFHRAVLQSGAPNGPWATVGMGEARRRATQLAHLVGCPPGGTGGNDTELVACLRTRPAQVLVNHEWHVLPQESVFRFSFVPVVDGDFLSDTPEALINAGDFHGLQVLVGVVKDEGSYFLVYGAPGFSKDNESLISRAEFLAGVRVGVPQVSDLAAEAVVLHYTDWLHPEDPARLREALSDVVGDHNVVCPVAQLAGRLAAQGARVYAYVFEHRASTLSWPLWMGVPHGYEIEFIFGIPLDPSRNYTAEEKIFAQRLMRYWANFARTGDPNEPRDPKAPQWPPYTAGAQQYVSLDLRPLEVRRGLRAQACAFWNRFLPKLLSATDTLDEAERQWKAEFHRWSSYMVHWKNQFDHYSKQDRCSDL
percentage of EdU-negative (hTERT-HMEC; [1]): 4.96 ± 0.24%
percentage of EdU-negative (hTERT-HMEC; [2]): 8.871 ± 0.06%
percentage of EdU-negative (MCF7; [1]): 25.5 ± 3.2%
percentage of EdU-negative (MCF7; [2]): 27.8 ± 2.5%

MGALARALPSILLALLLTSTPEALGANPGLVARITDKGLQYAAQEGLLALQSELLRITLPDFTGDLRIPHVGRGRYEFHSLNIHSCELLHSALRPVPGQGLSLSISDSSIRVQGRWKVRKSFFKLQGSFDVSVKGISISVNLLLGSESSGRPTVTASSCSSDIADVEVDMSGDLGWLLNLFHNQIESKFQKVLESRICEMIQKSVSSDLQPYLQTLPVTTEIDSFADIDYSLVEAPRATAQMLEVMFKGEIFHRNHRSPVTLLAAVMSLPEEHNKMVYFAISDYVFNTASLVYHEEGYLNFSITDDMIPPDSNIRLTTKSFRPFVPRLARLYPNMNLELQGSVPSAPLLNFSPGNLSVDPYMEIDAFVLLPSSSKEPVFRLSVATNVSATLTFNTSKITGFLKPGKVKVELKESKVGLFNAELLEALLNYYILNTFYPKFNDKLAEGFPLPLLKRVQLYDLGLQIHKDFLFLGANVQYMRV
percentage of EdU-negative (hTERT-HMEC; [3]): 5.11 ± 0.45%
percentage of EdU-negative (hTERT-HMEC; [4]): 7.684 ± 0.069%
percentage of EdU-negative (MCF7; [3]): 23.1 ± 3.5%
percentage of EdU-negative (MCF7; [4]): 26.4 ± 0.82%

MGTLSAPPCTQRIKWKGLLLTASLLNFWNLPTTAQVTIEAEPTKVSEGKDVLLLVHNLPQNLTGYIWYKGQMRDLYHYITSYVVDGEIIIYGPAYSGRETAYSNASLLIQNVTREDAGSYTLHIIKGDDGTRGVTGRFTFTLHLETPKPSISSSNLNPRETMEAVSLTCDPETPDASYLWWMNGQSLPMTHSLKLSETNRTLFLLGVTKYTAGPYECEIRNPVSASRSDPVTLNLLPKLPKPYITINNLNPRENKDVLNFTCEPKSENYTYIWWLNGQSLPVSPRVKRPIENRILILPSVTRNETGPYQCEIRDRYGGIRSDPVTLNVLYGPDLPRIYPSFTYYRSGEVLYLSCSADSNPPAQYSWTINEKFQLPGQKLFIRHITTKHSGLYVCSVRNSATGKESSKSMTVEVSDWTVP
percentage of EdU-negative (hTERT-HMEC; [5]): 5.16 ± 0.84%
percentage of EdU-negative (hTERT-HMEC; [6]): 7.5 ± 0.26%
percentage of EdU-negative (MCF7; [5]): 25 ± 2.2%
percentage of EdU-negative (MCF7; [6]): 25.7 ± 1.8%

MLTRLVLSAHLSSTTSPPWTHAAISWELDNVLMPSPRIWPQVTPTGRSASVRSEGNTSSLWNFSAGQDVHAIVTRTCESVLSSAVYTHGCGCVRSATNITCQSSGQQRQAARQEEENSICKAHDSREGRLGYPLSAHQPGSGGPN [Q8TAV5]
percentage of EdU-negative (hTERT-HMEC; [7]): 5.652 ± 0.04%
percentage of EdU-negative (hTERT-HMEC; protein concentration 0.225 µM): 12.7 ± 0.25%
percentage of EdU-negative (MCF7; [7]): 24.95 ± 0.064%
percentage of EdU-negative (MCF7; protein concentration 0.225 µM): 26 ± 2.6%

MAQTNSFFMLISSLMFLSLSQGQESQTELPNPRISCPEGTNAYRSYCYYFNEDPETWVDADLYCQNMNSGNLVSVLTQAEGAFVASLIKESSTDDSNVWIGLHDPKKNRRWHWSSGSLVSYKSWDTGSPSSANAGYCASLTSCSGFKKWKDESCEKKFSFVCKFKN
percentage of EdU-negative (hTERT-HMEC; [8]): 5.51 ± 1.2%
percentage of EdU-negative (hTERT-HMEC; [9]): 5.35 ± 1.6%
percentage of EdU-negative (MCF7; [8]): 27 ± 1.8%
percentage of EdU-negative (MCF7; [9]): 24.6 ± 0.83%
